# Results taken from PMC13544220, “Glycemic and bodyweight effects of GIPR coding variation reflect differences in surface expression and intrinsic functional impairment” (Science Advances, 2026).
# B1: E252D (protein)
# chain: RAETGSKGQTAGELYQRWERYRRECQETLAAAEPPSGLACNGSFDMYVCWDYAAPNATARASCPWYLPWHHHVAAGFVLRQCGSDGQWGLWRDHTQCENPEKNEAFLDQRLILERLQVMYTVGYSLSLATLLLALLILSLFRRLHCTRNYIHINLFTSFMLRAAAILSRDRLLPRPGPYLGDQALALWNQALAACRTAQIVTQYCVGANYTWLLVEGVYLHSLLVLVGGSDEGHFRYYLLLGWGAPALFVIPWVIVRYLYENTQCWERNEVKAIWWIIRTPILMTILINFLIFIRILGILLSKLRTRQMRCRDYRLRLARSTLTLVPLLGVHEVVFAPVTEEQARGALRFAKLGFEIFLSSFQGFLVSVLYCFINKEVQSEIRRGWHHCRLRRSLGEEQRQLPERAFRALPSGSGPGEVPTSRGLSSGTLPGPGNEASRELESYC
# Experiments:
# Type in all cases: cell-based, human
# [1] = tested on: wild-type and variant SNAP-GIPR; experiment: Surface SNAP-GIPR expression (SNAP-tag labelling) in AD293 cells; conditions: for AD293 Surface: Fig S3E, mean; for Surface SNAP-GIPR expression: sheet Fig 1C;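 for all read-outs here: scaled to the experimental average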
# Method in brief: (§1)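 Surface GIPR is quantified from wide-field images after labelling intact transfected cells with a membrane-impermeant SNAP probe at 500 nM for 10 min at room temperature. Specific signal, corrected for nontransfected cells, is normalized to the experiment-wide average or to wild-type.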
# [2] = tested on: wild-type and variant SNAP-GIPR; experiment: Single-concentration GIP cAMP response by HTRF in AD293 cells; conditions: Fig S3F, HTRF, mean;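 note: ratio to experiment-wide average response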
# Experimental: (§2) All variants were tested in parallel on each occasion to control for transfection efficiency differences between experiments.
# [3] = tested on: wild-type and variant SNAP-GIPR; experiment: Single-concentration GIP cAMP response by HTRF in INS-1 cells; conditions: Fig S3E, mean
# Experimental: as §2
# [4] = tested on: wild-type and variant SNAP-GIPR; experiment: cADDis cAMP imaging in AD293 cells, ensemble, expression-matched and per decile; conditions: Fig S3F, cADDis, mean
# Method in brief: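 Transient SNAP-GIPR plus cADDis BacMam in AD293; 24 h; SNAP-Surface AF647 500 nM, 10 min RT; wide-field 10X imaging at 37°C in KRBH/6 mM glucose/0.1% BSA. Cells failing IBMX/FSK response criteria excluded.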
# [5] = tested on: wild-type and variant SNAP-GIPR; experiment: Constitutive and agonist-mediated internalization, reversible SNAP-tag labelling, AD293 cells; parameters: key to Internalisation, Vehicle / Internalisation, +GIP / Internalisation, GIP-only: % internalization: residual fluorescence after Mesna vs pre-Mesna; Surface expression: unit not given here; conditions: Mean
# Method in brief: (§3)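 Surface SNAP-GIPR signal removable by Mesna was tracked by imaging before and 10 min after treatment in pH 8.6 TNE buffer. Internalization is the Mesna-resistant share of specific fluorescence.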
# [6] = tested on: wild-type and variant SNAP-GIPR; experiment: Constitutive and agonist-mediated internalization, reversible SNAP-tag labelling, INS-1 cells; parameters: key to Internalisation, GIP-only / Internalisation, Vehicle / Internalisation, +GIP: % internalization: residual fluorescence after Mesna vs pre-Mesna; conditions: Mean
# Method in brief: as §3
# [7] = tested on: wild-type and variant SNAP-GIPR; experiment: Surface SNAP-GIPR expression (SNAP-tag labelling) in INS-1 cells; conditions: Fig 4G; Mean
# Method in brief: as §1
molecule,measurement,setting,value
B1,AD293 Surface,"[1]; column repeated, paired with cAMP 100 nM",1.407
same,AD293 Surface,[1]; paired with cAMP 100 pM,1.407
same,Surface SNAP-GIPR expression,[1]; replicate 1,1.329
same,Surface SNAP-GIPR expression,[1]; replicate 2,1.136
same,Surface SNAP-GIPR expression,[1]; replicate 3,2.323
same,Surface SNAP-GIPR expression,[1]; replicate 4,1.309
same,Surface SNAP-GIPR expression,[1]; replicate 5,1.389
same,Surface SNAP-GIPR expression,[1]; replicate 6,1.509
same,Surface SNAP-GIPR expression,[1]; replicate 7,1.009
same,Surface SNAP-GIPR expression,[1]; replicate 8,1.58
same,Surface SNAP-GIPR expression,[1]; replicate 9,1.305
same,Surface SNAP-GIPR expression,[1]; replicate 10,1.452
same,Surface SNAP-GIPR expression,[1]; replicate 11,1.297
same,Surface SNAP-GIPR expression,[1]; replicate 12,1.294
same,Surface SNAP-GIPR expression,[1]; replicate 13,1.499
same,Surface SNAP-GIPR expression,[1]; replicate 14,1.714
same,Surface SNAP-GIPR expression,[1]; replicate 15,1.276
same,Surface SNAP-GIPR expression,[1]; replicate 16,1.31
same,Surface SNAP-GIPR expression,[1]; replicate 17,1.201
same,Surface SNAP-GIPR expression,[1]; replicate 18,1.327
same,Surface SNAP-GIPR expression,[1]; replicate 19,1.07
same,Surface SNAP-GIPR expression,[1]; replicate 20,1.361
same,Surface SNAP-GIPR expression,[1]; replicate 21,1.327
same,Surface SNAP-GIPR expression,[1]; replicate 22,1.295
same,Surface SNAP-GIPR expression,[1]; replicate 23,1.346
same,Surface SNAP-GIPR expression,[1]; replicate 24,1.279
same,Surface SNAP-GIPR expression,[1]; replicate 25,1.414
same,Surface SNAP-GIPR expression,[1]; replicate 26,1.49
same,Surface SNAP-GIPR expression,[1]; replicate 27,1.461
same,Surface SNAP-GIPR expression,[1]; replicate 28,1.564
same,Surface SNAP-GIPR expression,[1]; replicate 29,1.396
same,Surface SNAP-GIPR expression,[1]; replicate 30,1.388
same,Surface SNAP-GIPR expression,[1]; replicate 31,2.074
same,Surface SNAP-GIPR expression,[1]; replicate 32,1.301
same,Surface SNAP-GIPR expression,[1]; replicate 33,1.332
same,Surface SNAP-GIPR expression,[1]; replicate 34,1.623
same,Surface SNAP-GIPR expression,[1]; replicate 35,1.576
same,Surface SNAP-GIPR expression,[1]; replicate 36,1.688
same,Surface SNAP-GIPR expression,[1]; replicate 37,1.181
same,Surface SNAP-GIPR expression,[1]; replicate 38,1.286
same,Surface SNAP-GIPR expression,[1]; replicate 39,1.291
same,Surface SNAP-GIPR expression,[1]; replicate 40,1.349
same,Surface SNAP-GIPR expression,[1]; replicate 41,1.333
same,AD293 100 pM HTRF,"[2]; AD293, 100 pM",2.258
same,AD293 100 nM HTRF,"[2]; AD293, 100 nM",1.787
same,INS-1 cAMP (100 nM),[3],1.435
same,AD293 100 pM cADDis,"[4]; AD293, 100 pM",35.9603
same,AD293 100 nM cADDis,"[4]; AD293, 100 nM",38.59
same,+GIP internalisation (100 nM),"[5]; Fig 4E, GIP 100 nM",0.7833
same,GIP-specific internalisation (100 nM),"[5]; Fig 4E, GIP 100 nM",0.2173
same,Constitutive internalisation (100 nM),[5]; Fig 4E,0.566
same,Surface expression,[5]; Fig 4E,1.422
same,"Internalisation, +GIP","[5]; Fig S4C, AD293",55.2271
same,"Internalisation, GIP-only","[5]; Fig S4C, AD293",15.2317
same,"Internalisation, Vehicle","[5]; Fig S4C, AD293",39.9954
same,+GIP internalisation (100 nM),"[6]; Fig 4G, GIP 100 nM",0.6632
same,GIP-specific internalisation (100 nM),"[6]; Fig 4G, GIP 100 nM",0.1797
same,Constitutive internalisation (100 nM),[6]; Fig 4G,0.4835
same,"Internalisation, +GIP","[6]; Fig S4C, INS-1",49.4067
same,"Internalisation, GIP-only","[6]; Fig S4C, INS-1",13.4967
same,"Internalisation, Vehicle","[6]; Fig S4C, INS-1",35.91
same,Surface expression,[7],1.379
